Reference: US20220153832A1 (PIONYR IMMUNOTHERAPEUTICS, published 2022)
Changes are numbered by the printed parent chain. Like-named read-outs stand apart in the source and are kept apart here. Blank lines part the entries; values can stand above or below the binder they belong to.

Assays:
[1] = biological target: T1, N-terminally polyhistidine tagged human MARCO ECD (147-520), recombinant (human, UniProt Q9UEW3 147-520); experiment: SPR, single cycle (sc)
T1 construct: also called PI-RG-3000; recombinant human MARCO; not shown: N-terminal polyhistidine tag
T1 sequence: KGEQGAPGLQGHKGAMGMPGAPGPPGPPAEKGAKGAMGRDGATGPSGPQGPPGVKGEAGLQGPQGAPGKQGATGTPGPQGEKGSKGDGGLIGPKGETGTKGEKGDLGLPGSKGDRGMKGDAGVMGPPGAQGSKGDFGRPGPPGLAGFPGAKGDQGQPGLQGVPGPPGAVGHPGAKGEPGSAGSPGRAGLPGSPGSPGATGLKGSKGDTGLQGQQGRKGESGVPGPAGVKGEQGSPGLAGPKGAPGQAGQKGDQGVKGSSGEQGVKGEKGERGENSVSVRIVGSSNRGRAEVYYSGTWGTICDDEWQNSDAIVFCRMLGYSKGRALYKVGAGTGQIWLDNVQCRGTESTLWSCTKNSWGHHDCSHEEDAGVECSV

[2] = biological target: T2, recombinant cynomolgus MARCO protein (cynomolgus, UniProt A0A2K5X0Z2 65-519); experiment: SPR, single cycle (sc)
T2 construct: Construct not described; also called cyno MARCO; cynoMARCO
T2 sequence: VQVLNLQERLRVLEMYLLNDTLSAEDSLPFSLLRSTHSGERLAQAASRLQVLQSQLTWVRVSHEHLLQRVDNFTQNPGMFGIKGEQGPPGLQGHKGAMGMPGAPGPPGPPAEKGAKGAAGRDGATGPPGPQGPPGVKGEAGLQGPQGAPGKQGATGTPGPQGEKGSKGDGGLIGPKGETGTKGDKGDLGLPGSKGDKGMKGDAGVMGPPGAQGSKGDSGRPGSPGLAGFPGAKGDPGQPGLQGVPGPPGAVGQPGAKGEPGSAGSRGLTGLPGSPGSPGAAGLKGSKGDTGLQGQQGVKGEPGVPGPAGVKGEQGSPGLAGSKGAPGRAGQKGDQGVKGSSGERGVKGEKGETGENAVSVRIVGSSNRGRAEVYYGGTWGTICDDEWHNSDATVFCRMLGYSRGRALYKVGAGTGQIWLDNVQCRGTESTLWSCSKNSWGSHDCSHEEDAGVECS

[3] = biological target: T3, Cynomolgus MARCO, full length, on cells (cynomolgus, UniProt A0A2K5X0Z2 1-519); experiment: flow cytometry, cells overexpressing cyno MARCO
T3 construct: whole, on cells; also called cyno MARCO; CyMARCO
T3 sequence: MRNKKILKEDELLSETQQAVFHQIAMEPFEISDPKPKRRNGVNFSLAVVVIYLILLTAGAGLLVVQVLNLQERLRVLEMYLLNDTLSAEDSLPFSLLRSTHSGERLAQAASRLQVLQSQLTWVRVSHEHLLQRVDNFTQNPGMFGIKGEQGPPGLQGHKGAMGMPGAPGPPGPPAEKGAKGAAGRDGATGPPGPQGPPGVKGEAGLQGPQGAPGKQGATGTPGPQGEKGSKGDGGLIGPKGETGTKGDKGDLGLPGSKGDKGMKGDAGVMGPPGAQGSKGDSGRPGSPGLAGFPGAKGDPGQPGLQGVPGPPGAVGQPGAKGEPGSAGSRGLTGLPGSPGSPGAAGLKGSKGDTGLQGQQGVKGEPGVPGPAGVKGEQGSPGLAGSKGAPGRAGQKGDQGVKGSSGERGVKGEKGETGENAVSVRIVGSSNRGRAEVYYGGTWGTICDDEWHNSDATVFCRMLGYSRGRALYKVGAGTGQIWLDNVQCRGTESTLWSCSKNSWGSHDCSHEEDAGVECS

[4] = biological target: T4, Human Macrophage Receptor with Collagenous Structure (MARCO), full length, on cells (human, UniProt Q9UEW3 1-520); experiment: flow cytometry, cells overexpressing human MARCO
T4 construct: the cell type is named under assay; also called huMARCO; HuMARCO
T4 sequence: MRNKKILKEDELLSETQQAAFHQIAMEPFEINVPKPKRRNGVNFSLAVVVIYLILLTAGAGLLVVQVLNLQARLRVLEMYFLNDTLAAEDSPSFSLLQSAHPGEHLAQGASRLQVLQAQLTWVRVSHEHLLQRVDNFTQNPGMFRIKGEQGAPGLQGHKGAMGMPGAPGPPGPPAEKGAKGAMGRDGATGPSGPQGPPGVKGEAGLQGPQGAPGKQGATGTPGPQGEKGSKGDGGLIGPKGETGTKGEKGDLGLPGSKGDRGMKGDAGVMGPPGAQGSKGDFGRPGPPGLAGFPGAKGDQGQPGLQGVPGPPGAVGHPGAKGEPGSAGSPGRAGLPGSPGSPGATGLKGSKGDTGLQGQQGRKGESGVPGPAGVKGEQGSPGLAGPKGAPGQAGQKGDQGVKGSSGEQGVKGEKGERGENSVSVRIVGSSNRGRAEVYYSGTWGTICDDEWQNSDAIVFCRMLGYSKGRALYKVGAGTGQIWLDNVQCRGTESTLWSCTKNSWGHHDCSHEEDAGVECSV

[5] = biological target: T4, Human Macrophage Receptor with …; experiment: cell-based competition with AF488 E. coli binding to cells expressing MARCO
Protocol: Zombie NIR viability dye (BioLegend), prepared by diluting the stock 1000-fold in D-PBS, was added to the cells and incubated for 10 min at RT in the dark. The reaction was quenched by adding 1 m of 4× Staining buffer (2% FBS in DBPS containing Ca2+), followed by centrifugation at 400×g for 5 min at 4° C. Cells were then plated in V-shaped 96 well plates at a density of 100,000 cells. A488-fluorescently labeled bacteria (E. coli from Invitrogen) was added at 10 μg/ml with the anti-human MARCO antibodies of interest for a 30 min incubation at 37 C. Plates were then washed twice followed by resuspension in 100 ul of staining buffer for acquisition on the flow cytometer (Attune NxT, Life Technologies). Flow cytometry data were analyzed using FlowJo software (version 10.6.1) and data were processed and further analyzed in Microsoft Excel and GraphPad Prism software (version 8).

hVar3 (RG3036) = biological target: T5, hVar3 (RG3036) (human, UniProt Q9UEW3 147-520); experiment: ELISA on hVar3
T5 construct: Human MARCO His-CLD-SRCR with Q452D, Y472S and K473S (already in the entry); also called recombinant human SRCR MARCO hVar3 protein

[6] = biological target: T1, N-terminally polyhistidine tagged human …; experiment: ProbeLife Gator
Protocol: The kinetics assay used either anti-mouse Fc or anti-human Fc probes to capture the anti-MARCO antibodies onto the probe, and then a five-step kinetic protocol was used to measure the affinity of the antibodies to the antigen, including the following steps: baseline, loading, baseline, association, and dissociation. The kinetics buffer (K buffer) provided by ProbeLife was used to establish the baseline for 60 seconds, and then the anti-mFc or anti-hFc probes were loaded with 200 nM of the antibodies for 120s until the capture reached saturation, measurement of the baseline in K buffer was performed for another 60s, followed by the association step using 200 nM antigen (human MARCO, mouse MARCO or cyno MARCO), and the dissociation step performed in K buffer for 5-10 minutes. The assay was done at 37° C. to maximize antibody:antigen dissociation.

[7] = biological target: T1, N-terminally polyhistidine tagged human …; experiment: KD (nM) Human; method not given
[8] = biological target: T3, Cynomolgus MARCO, full length, on cells; experiment: flow cytometry, cells overexpressing cyno MARCO; remark: listed apart in the source
[9] = biological target: T4, Human Macrophage Receptor with …; experiment: flow cytometry, cells overexpressing human MARCO; remark: listed apart in the source
Protocol: Supernatants were removed and cell pellets were resuspended in Ca²⁺+ and Mg²⁺+ Dulbecco's phosphate-buffered saline (D-PBS) at 1×10⁶ cells/ml. 100,000 cells/well were plated onto U-bottom 96-well plates for staining and all centrifugation steps were performed at 1500 rpm at 4° C. for 5 min and samples were kept protected from light throughout the protocol. Cells were pelleted and resuspended in 100 μl of Zombie NIR viability dye (BioLegend) prepared by diluting Zombie NIR dimethyl sulfoxide (DMSO) stock 1000-fold in D-PBS. Cells were stained by incubation for 10 min at room temperature (RT) in the dark, followed by quenching the staining reaction with the addition of 100 μl of Staining Medium (D-PBS containing 2% FBS and 2 mM ethylenediaminetetraacetic acid (EDTA). Cells were pelleted and resuspended in 100 μl of the different antibodies and hybridomas supernatants needed for screening and corresponding isotype controls in freshly prepared staining medium, such as PI-M014 and mIgG2b isotype. All mAbs were tested at the final top concentration of 100 nM (15 μg/ml) followed by an 8-point three-fold serial dilution, including 0 mg/ml control. Staining was carried out for 1 hour (hr) on ice, followed by 2 washes in Staining Medium. Cells were then pelleted and resuspended in 100 μl of allophycocyanin (APC)-conjugated goat anti-mouse IgG (Fc-specific) secondary antibody, prepared by 500-fold dilution of the antibody stocks in Staining Medium, and incubated for 30 min on ice. […] Flow cytometry data were analyzed using FlowJo software (version 10.6.1) and data were processed and further analyzed in Microsoft Excel and GraphPad Prism software (version 8). Half-maximal effective concentrations (EC₅₀) were calculated based on geometric mean fluorescence intensities (gMFI). In case when the plates were not able to be analyzed on the cytometer, cells were pelleted after the washes and fixed in 100 μl of 2% paraformaldehyde (PFA), prepared by diluting the 16% (w/v) stock (Thermo Fisher) in DPBS, for 15 min at RT. […]

[10] = biological target: T6, chimera Mouse MARCO CLD-human MARCO SRCR, on cells; experiment: flow cytometry, cells overexpressing HuSRCR-mouse CLD chimera
T6 chain: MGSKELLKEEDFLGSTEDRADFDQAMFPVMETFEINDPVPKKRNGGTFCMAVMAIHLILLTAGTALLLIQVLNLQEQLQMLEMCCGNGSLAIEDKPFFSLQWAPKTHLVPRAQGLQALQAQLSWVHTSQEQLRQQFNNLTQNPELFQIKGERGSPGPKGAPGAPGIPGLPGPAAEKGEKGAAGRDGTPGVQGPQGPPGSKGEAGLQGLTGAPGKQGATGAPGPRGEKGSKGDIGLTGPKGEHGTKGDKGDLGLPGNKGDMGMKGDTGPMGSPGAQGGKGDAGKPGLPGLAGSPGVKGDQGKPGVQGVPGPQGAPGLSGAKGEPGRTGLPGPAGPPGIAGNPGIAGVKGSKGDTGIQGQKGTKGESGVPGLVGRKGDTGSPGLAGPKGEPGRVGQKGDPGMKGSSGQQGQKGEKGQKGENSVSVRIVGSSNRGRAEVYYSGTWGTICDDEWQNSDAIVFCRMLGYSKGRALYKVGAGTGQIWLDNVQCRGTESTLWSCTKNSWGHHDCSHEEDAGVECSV

Kd [1]: 1.13 nM
Kd [2]: 0.735 nM
EC50 [3]: 1.4 nM
EC50 [4]: 0.57 nM
EC50 [5]: 0.12 nM
B1: PI-3012-AB (antibody, human IgG1, kappa, V domains shown)
VH: QVQLQESGPGLVKPSETLSLTCTVSGFSLTSYHVSWVRQPPGKGLEWIGAIWTGGSIAYNPSLKSRVTISRDTSKNQVSLKLSSVTAADTAVYYCARDLSDYYSSYTSFDYWGQGTLVTVSS
VL: DIQMTQSPSSLSASVGDRVTITCRASEGISNDLAWYQQKPGKAPKLLIYAASRLQSGVPSRFSGSGSGTDYTLTISSLQPEDFATYYCQQSYKYPLTFGQGTKLEIKR

binding result (hVar3 (RG3036)): no binding
koff [6]: 0.00351 s⁻¹
Kd [7]: 0.44 nM
EC50 [8]: 0.38 nM
EC50 [9]: 0.55 nM
EC50 [10]: 0.17 nM
B2: PI-3030-AB (antibody, human IgG1, kappa)
heavy: not shown
light: DIQMTQSPASLSASLGETVSIECLASAGISNDLAWYQQKSGKSPQLLIYAASRLQDGVPSRFSGSGSGTRFSLKISDMQPEDEADYFCQQSYKYPWTFGGGTKLELKRTVAAPSVFIFPPSDEQLKSGTASVVCLLNNFYPREAKVQWKVDNALQSGNSQESVTEQDSKDSTYSLSSTLTLSKADYEKHKVYACEVTHQGLSSPVTKSFNRGEC
notes: Human IgG1 chimera of PI-HX-3011; also called HX3011-h1 Chimera hIgG1

binding result (hVar3 (RG3036)): no binding
koff [6]: 0.00281 s⁻¹
Kd [7]: 0.6 nM
EC50 [8]: 1.09 nM
EC50 [9]: 1.6 nM
EC50 [10]: 1.07 nM
B3: PI-3031-AB (antibody, human IgG1, kappa)
heavy: not shown
light: B2 light with A25T, A27E, A50D, Q55E, F71Y, D77G, P80T, W96L, G100S, L106I
notes: Human IgG1 chimera of PI-HX-3043; also called HX3043-h1 Chimera hIgG1
